Residue numbers refer to the chain shown, from its start. In names and notes the source's numbering stands.

Assay [1] addresses Recombinant Human FGFR1 alpha (IIIc) Fc Chimera Protein (R&D systems, 658-FR-050) (human) (UniProt P11362). Put plainly: ELISA: FGFR1-Fc coated at 0.5 ug/ml, FGF sample at 80 ng/ml, biotinylated anti-FGF antibody BAM233 and streptavidin-HRP, blank subtracted; sample kept 0 h at 37 C. Background: An ELISA detects its analyte on a solid surface through an enzyme-linked reagent.
Assay [2] has the same target. As to the kind of experiment: ELISA: FGFR1-Fc coated at 0.5 ug/ml, FGF sample at 80 ng/ml, biotinylated anti-FGF antibody BAM233 and streptavidin-HRP, blank subtracted; sample kept 6 h at 37 C.
Assay [3] shares this target. Put plainly: ELISA: FGFR1-Fc coated at 0.5 ug/ml, FGF sample at 80 ng/ml, biotinylated anti-FGF antibody BAM233 and streptavidin-HRP, blank subtracted; sample kept 24 h at 37 C.
For assay [4] the target is unchanged. As to the kind of experiment: ELISA: FGFR1-Fc coated at 0.5 ug/ml, FGF sample at 80 ng/ml, biotinylated anti-FGF antibody BAM233 and streptavidin-HRP, blank subtracted; sample kept 48 h at 37 C.

Recombinant Human FGFR1 alpha (IIIc) Fc Chimera Protein (R&D systems, 658-FR-050) (human), sequence (P11362 22-376, change not shown): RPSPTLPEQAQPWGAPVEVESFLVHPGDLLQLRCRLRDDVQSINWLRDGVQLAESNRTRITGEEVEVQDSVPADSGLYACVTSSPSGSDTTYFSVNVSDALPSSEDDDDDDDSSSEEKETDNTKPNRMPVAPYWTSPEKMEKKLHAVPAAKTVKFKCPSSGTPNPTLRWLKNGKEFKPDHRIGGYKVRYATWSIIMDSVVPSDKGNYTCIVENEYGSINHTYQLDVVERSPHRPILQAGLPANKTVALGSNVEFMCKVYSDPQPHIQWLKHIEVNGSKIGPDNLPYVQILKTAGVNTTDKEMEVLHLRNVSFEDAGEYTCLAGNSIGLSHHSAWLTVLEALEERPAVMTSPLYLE

B1: FGF320 (FGF1 + FGF2-CHIMERA_Pig) (ligand)
chain: MANYKKPKLLYCSNGGHFLRIHPDGRVDGVREKSDPHIKLQLQAEERGVVSIKGVCANRYLAMDTSGLLYGSQTPSEECLFLERLEENHYNTYTSKKHAEKNWFVGLKKNGSCKRGPRTHYGQKAILFLPLPV
Take B1: the Absorbance (450 nm) (absorbance (450 nm)) in assay [1] was 2.1; in assay [2], 0.9; in assay [3], 0.7; in assay [4], 0.6.

B2: FGF323 (FGF1 + FGF2-CHIMERA_Pig_C12S; Q43I; A62C; H89G; C113A) (ligand)
chain: B1 chain with C12S, Q43I, A62C, H89G, C113A
B2: the Absorbance (450 nm) (absorbance (450 nm)) came to 2.5 in assay [1], 2.4 in assay [2], 2.3 in assay [3] and 2.3 in assay [4].
